Publication PMC10137048

Biological target: amyloid beta (Aβ) peptide Aβ42

Substance: amyloid beta (Aβ) peptide Aβ42
- stoichiometry N: < 4
